{"source": "paper PMC3762189", "about": "“Mechanism of synergistic activation of Arp2/3 complex by cortactin and N-WASP” (eLife, 2013)", "biological_target": "G-actin (rabbit muscle actin monomers) (rabbit, UniProt P68135 1-377)", "experiment": "fluorescence polarisation; competition: anisotropy of 50 nM Rhodamine-VCA with 150 nM G-actin and increasing VCA or VCA mutants; 10 mM Hepes pH 7.0, 50 mM KCl, 1 mM MgCl2, 1 mM EGTA, 1 mM DTT, 0.2 mM ATP, 350 nM Latrunculin B; KD is the mean of at least three fits", "conditions": "both partners purified", "data": [{"binder": "N-WASP-VCA (domain or fragment, N-WASP, VCA region (verprolin homology, central, acidic); The text implies a GST tag with a TEV site on the VCA constructs; also called monomeric VCA; WT; source: purified as described previously (Hetrick et al., 2013)) PVSCSGRDALLDQIRQGIQLKSVTDAPESTPPAPAPTSGIVGALMEVMQKRSKAIHSSDEDEDEDDDEDFEDDDEWED", "values": [{"measurement": "Kd", "value": "560 ± 30", "unit": "nM"}]}]}
